From PMC4930479 (Angiogenesis, 2016) come the findings set out here.

As a reminder, the stoichiometry N is a count of units in the complex or per binding partner.

The data set deals with the molecule itself. Kind of data set: SEC-MALS; inhibitor and ligand mixed at molar ratios 5:1 to 1:5 (20 µM and 100 µM), 12 h at ambient temperature; free proteins injected separately; Superose 12 10/300 GL, 10 mM phosphate, 500 mM NaCl, pH 7.0, 0.3 mL/min. On the technique in general: Size exclusion chromatography separates by hydrodynamic size, large species first.

B1: PlGF-2 (ligand, UniProt P49763-3 19-170, looked up)
chain: LPAVPPQQWALSAGNGSSEVEVVPFQEVWGRSYCRALERLVDVVSEYPSEVEHMFSPSCVSLLRCTGCCGDENLHCVPVETANVTMQLLKIRSGDRPSYVELTFSQHVRCECRPLREKMKPERRRPKGRGKRRREKQRPTDCHLCGDAVPRR
notes: PlGF-2, isoform of placental growth factor; Dimer (~42 kDa by SEC-MALLS); also called placental growth factor
As to B1, the “stoichiometry N” value is 2.
